Here are results for one substance from publication PMC4104026.

This series addresses Hfq (His6-tagged) (UniProt P0A6X3). Nature of the series: EMSA. As to conditions: Single-RNA EMSA: 10 mM Tris-HCl pH 7.4, 0.1 mM EDTA, 10 mM NH4Cl, 10 mM NaCl, 10 mM KCl, 1 mg/ml tRNA, 4% glycerol, RT 5 min; ~40 fmol RNA (legend; Methods say …). Background: Mobility shift assays separate free from complexed probe on a gel.

Chain of Hfq (His6-tagged) (P0A6X3 whole entry): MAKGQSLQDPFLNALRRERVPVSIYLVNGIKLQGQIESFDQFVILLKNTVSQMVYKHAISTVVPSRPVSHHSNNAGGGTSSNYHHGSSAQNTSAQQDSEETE

As for DppA mRNA 5' 166 nt (DppASal), the binding signal (fold higher affinity than AgvB and GcvB) is 10.
